Measured values from patent US20190177422A1 (SORRENTO THERAPEUTICS, published 2019).

T1: OX40 on OX40+ HEK293-NFkB-luciferase reporter stable cells (UniProt P43489 29-277)
T1 sequence (looked up): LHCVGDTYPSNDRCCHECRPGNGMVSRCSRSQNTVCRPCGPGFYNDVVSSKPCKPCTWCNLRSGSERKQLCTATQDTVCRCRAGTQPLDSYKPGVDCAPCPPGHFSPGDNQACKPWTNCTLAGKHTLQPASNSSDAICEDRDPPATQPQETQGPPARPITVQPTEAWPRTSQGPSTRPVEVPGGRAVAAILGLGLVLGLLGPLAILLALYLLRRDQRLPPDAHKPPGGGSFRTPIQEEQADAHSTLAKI

B1: OX1D9 (antibody, V domains shown)
VH: QVQLVQSGAEVKKPGASVKVSCKASGYTFTSYGISWVRQALGQRLEWLGWINAGDGETKYSPKFQGRVTITRDTSASTAYMDLSGLTSEDTAVYYCARDFLSTMDYWGQGTLVTVSS
VL: DVVMTQSPSSLSASVGDRVTITCQASQDISNYLNWYQQKPGKAPKLLIYDASNLETGVPSRFSGGGSGTDFTFTISSLQPEDIATYYCQQFDNLPYTFGQGTKVEIK
B2: OX1C4 (antibody, V domains shown)
VH: EVQLVESGAEVKKPGASVKVSCKTSGYTFTGYYLHWVRQAPGQGLEWMGIINPGDGSTRNAQKFEGRVTMTRDTSTSTVYMELSSLSPEDTAVYYCARDLEYIGSGSLSWFDPWGQGTLVTVSS
VL: LPVLTQPASVSGSPGQSITISCSGTSSDFLTYDLVSWYKQQPGKAPKLMIYDVNKRPSGVSDRFSGSKSGNTASLTISGLQAADEADYYCSSYTSSSTPYVFGTGTKVTVL
B3: OX1B2 (antibody, V domains shown)
VH: QVQLVQSGAEVKKPGASVKVSCKASGYTFTSYYMHWVRQAPGQGLEWMGIINPSGGSTSYAQKFQGRVTMTRDTSTSTVYMELSSLRSEDTAVYYCARDYYDSSGYSDYGMDVWGQGTTVTVSS
VL: DIVMTQSPSSLSASVGDRVTITCRASQSISSYLNWYQQKPGKAPKLLIYAASSLQSGVPSRFSGSGSGTDFTLTISSLQPEDFAIYYCQQNYNTRQVTFGQGTRLEIK
B4: OX4D7 (antibody, V domains shown)
VH: QVQLVQSGAEVKKPGASVKVSCKASGYTFTSYYMHWVRQAPGQGLEWMGIINPSGGSTSYAQKFQGRVTMTTDTSTSTAYMELRSLRSDDTAVYYCARDPYSSSWYGAEYFQHWGQGTLVTVSS
VL: QSVLTQPRSVSGSPGQSVTISCTGTSSDGGDYNYVSWYQQHPGQAPKLLIYEVSNRPSGVSNRFSGSKSGNTASLTISGLQAEDEADYYCSSYTSSSTLVVFGGGTKLTVL

Molecular target: T1, OX40 on OX40+ HEK293-NFkB-luciferase …
Test: cell-based or functional assay

Binder	luciferase activity (RLUs) of OX40+ HEK293-NFkB-luciferase reporter cells, ~6 h stimulation, antibody at 20 µg/ml
B1	> 50 % of signal observed with purified rhOX40L+anti-His
B2	> 50 % of signal observed with purified rhOX40L+anti-His
B3	> 50 % of signal observed with purified rhOX40L+anti-His
B4	> 50 % of signal observed with purified rhOX40L+anti-His
